# Experimental data published in paper PMC4615771.
# T1: PTOV1 eATmut (Homo sapiens, UniProt Q86YD1 1-43, R20D;R22D)
# T1 chain: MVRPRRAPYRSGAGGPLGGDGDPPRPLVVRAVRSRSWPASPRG
# T2: GPBP1 eAT-hook (eAT) (Homo sapiens, UniProt D4PHA4 38-80)
# T2 chain: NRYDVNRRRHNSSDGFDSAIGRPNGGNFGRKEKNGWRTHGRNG
# T3: GPBP1 eATmut (Homo sapiens, UniProt D4PHA4 38-80, R59D)
# T3 chain: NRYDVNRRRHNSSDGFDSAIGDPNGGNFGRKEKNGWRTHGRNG
# Experiments:
# PTOV1 eATmut [1] = molecular target: T1, PTOV1 eATmut; assay: EMSA
# GPBP1 eAT-hook (eAT) [2] = molecular target: T2, GPBP1 eAT-hook (eAT); assay: MST
# GPBP1 eAT-hook (eAT) [3] = molecular target: T2, GPBP1 eAT-hook (eAT); assay: MST competition
# GPBP1 eAT-hook (eAT) [4] = molecular target: T2, GPBP1 eAT-hook (eAT); assay: MST
# GPBP1 eATmut = molecular target: T3, GPBP1 eATmut; assay: MST
# PTOV1 eATmut [5] = molecular target: T1, PTOV1 eATmut; assay: MST
binder,measurement,setting,value
rDNA En (gel shift) (dsDNA) DNA 1: TGGATCTTTTTTTTTTTTTTTCTTTTTTCCTCCA DNA 2: TGGAGGAAAAAAGAAAAAAAAAAAAAAAGATCCA,binding result,PTOV1 eATmut [1],no binding
AGUUCCAUGAUGUUUUCAAACUCUAUUACCUACAUUAUUUGAAC (structured_RNA) [RNA1],apparent K (half saturation),GPBP1 eAT-hook (eAT) [2],378 ± 18 nM
same,apparent K (half saturation),GPBP1 eAT-hook (eAT) [3],373 ± 19 nM
GAGAAACCGUGUAAACAAAACAUAACUGAGAGG (structured_RNA) [RNA2],apparent K (half saturation),GPBP1 eAT-hook (eAT) [2],938 ± 92 nM
rDNA En (MST) (dsDNA) DNA 1: TCTTTTTTTTTTTTTTTCTTTTTTCCTCC DNA 2: GGAGGAAAAAAGAAAAAAAAAAAAAAAGA,apparent K (half saturation),GPBP1 eAT-hook (eAT) [4],7 ± 1.7 µM
same,binding result,GPBP1 eATmut,no binding
same,binding result,PTOV1 eATmut [5],no binding
